Assay results from publication PMC10045489 (Bioengineering, 2023).

Target: T1, full-length His-tagged SARS-CoV-2 spike protein (wild-type) (SARS-CoV-2, wild-type (Wuhan-Hu-1), UniProt P0DTC2)
T1 construct: also called full-length S-protein; full-length Spike protein; source: CHO Express cells, cell medium purified by Ni-IMAC; not shown: His-tag, C-terminal, kept
Assay: BLI
Conditions: both partners purified

B1: Nb20 nanobody (VHH)
VHH: QVQLVESGGGLVQAGGSLRLSCAVSGAGAHRVGWFRRAPGKEREFVAAIGASGGMTNYLDSVKGRFTISRDNAKNTIYLQMNSLKPQDTAVYYCAARDIETAEYIYWGQGTQVTVSS
notes: not shown: ecotin, N-terminal, cleaved; His-tag, N-terminal, cleaved
  Kd: ~1 nM
